Test results published in the supplement of paper PMC9732359.
± gives the uncertainty stated by the source.

Assay: protein stability index of a GFP-peptide fusion (yeast GPS) (PSI 1-4); higher = more stable; sorted into four equal gates, so the index is relative within each strain
How it was run: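 Each library plasmid carries Cherry plus GFP with a tiled 17-residue yeast protein peptide fused downstream, and the pooled library was carried in yeast. Mid-log cultures in leucine-free medium were sorted into four equal gates by GFP/Cherry ratio. Reads from Illumina sequencing of PCR-amplified plasmids from each gate were assigned to strains by barcodes. Per peptide, the protein stability index was computed as the summed products of gate read frequency and gate number.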

| Sequence | protein stability index (doa10∆) | protein stability index (pdr5∆) | protein stability index (san1∆) | protein stability index (ubr1∆) |
| --- | --- | --- | --- | --- |
| GVTDLFRHFIGIKAKHD [ISW2] | 1.2 ± 0.13 | 1.43 ± 0.11 |  |  |
| PSFGKRHNKSHTLCNRC [RPL37A] | 2.54 ± 0.1 | 2.84 ± 0.08 | 2.97 ± 0.12 | 2.68 ± 0.21 |
| GANTSAAQTLLQMDYKD [PRE9] | 3 ± 0.061 | 3.13 ± 0.058 | 3.09 ± 0.048 | 2.96 ± 0.051 |
| QKCFKLTHRLGGDTCSS [POP1] | 2.27 ± 0.059 | 1.85 ± 0.056 | 2.55 ± 0.068 | 2.51 ± 0.054 |
| DTSAEKDQIQAGKWFDP [SIR4] | 3.51 ± 0.12 | 3.57 ± 0.14 | 3.38 ± 0.12 | 3.38 ± 0.18 |
| IAEGQKKFATVPTGGAS [RPP2B] | 2.81 ± 0.057 | 2.89 ± 0.056 | 2.69 ± 0.06 | 2.53 ± 0.04 |
| KIYKLENGERKLYDAKR [YMR129W/POM152] | 3.13 ± 0.06 | 3.17 ± 0.077 | 3.21 ± 0.065 | 3.29 ± 0.06 |
| RNADELSSYQKKIIKCD [PRE5] | 2.25 ± 0.058 | 2.08 ± 0.084 | 2.58 ± 0.086 | 1.65 ± 0.049 |
| GLCGAGTNNARLAQLLR [RPN1] | 2.44 ± 0.068 | 1.79 ± 0.047 | 1.4 ± 0.13 | 1.16 ± 0.042 |
| GIKLQMQNSKVESVCQK [SMC4] | 2.55 ± 0.074 | 2.45 ± 0.077 | 2.59 ± 0.08 | 2.5 ± 0.084 |
| IRNIVEAAAVRDLSEAS [RPS26A] | 2.07 ± 0.066 | 2.39 ± 0.082 | 2.39 ± 0.079 | 2.49 ± 0.077 |
| RLNKLNSNGIAMASLYL [SMD1] | 2.82 ± 0.075 | 2.95 ± 0.063 | 2.78 ± 0.065 | 2.67 ± 0.069 |
| VLPLGSVPEGTIVSNVE [RPL2A] | 3.19 ± 0.12 | 3.33 ± 0.11 | 2.78 ± 0.18 | 3.12 ± 0.094 |
| IGSQRGRRLSMLASQAN [DSN1] | 1.75 ± 0.057 | 2.47 ± 0.068 | 1.88 ± 0.096 | 2.18 ± 0.047 |
| ELTIIKNPRVTKEYLVQ [CSN9] |  | 3 ± 0.3 | 3.15 ± 0.11 | 3.35 ± 0.091 |
| YIFCISRTIGMVVNGPI [SCL1] | 1.45 ± 0.038 | 1.54 ± 0.047 | 1.58 ± 0.082 | 1.56 ± 0.034 |
| TFEFINIAFDAHMSIGC [YML031W/NDC1] | 1.2 ± 0.074 | 1.38 ± 0.067 | 1.19 ± 0.13 | 1.33 ± 0.062 |
| TYDKETITDLIEQGIPK [SIR4] | 3.3 ± 0.049 | 3.39 ± 0.051 | 3.35 ± 0.04 | 3.41 ± 0.043 |
| IPLDNYDDFIYLSDLKQ [PCI8] | 2.11 ± 0.12 | 2.04 ± 0.14 | 1.77 ± 0.25 | 2.62 ± 0.12 |
| RFPTKFVTQFRHLRRTG [RET1] | 1.41 ± 0.078 | 1.73 ± 0.14 |  | 2.17 ± 0.068 |
| EKLLKELENNEFTENEL [ITC1] | 3.43 ± 0.074 | 3.21 ± 0.078 | 3.33 ± 0.069 | 3.33 ± 0.097 |
| GHRMKNAQSKLSLTLNT [SNF2] | 1.94 ± 0.056 | 1.73 ± 0.04 | 1.79 ± 0.065 | 2.24 ± 0.041 |
| IELSVPDRQSMDSRVAH [SRB5] | 3.11 ± 0.17 | 2.96 ± 0.14 | 3.17 ± 0.13 | 3.16 ± 0.089 |
| FKATHILDFGPGGASGL [FAS1] | 2.75 ± 0.08 | 3.43 ± 0.14 |  | 2.96 ± 0.21 |
| KDVKAWAGKRLWDQDIA [COR1] | 3.52 ± 0.11 | 3.4 ± 0.11 | 3.27 ± 0.061 | 3.2 ± 0.091 |
| MPGMPNMPGMPKVTPQM [SRP54] | 3.06 ± 0.17 | 3.2 ± 0.21 | 2.65 ± 0.18 | 3.34 ± 0.1 |

| Sequence | protein stability index (doa10∆) | protein stability index (pdr5∆) | protein stability index (san1∆) | protein stability index (ubr1∆) |
| --- | --- | --- | --- | --- |
| ESDLYKLKECPFDMGGY [RPB2] | 3.13 ± 0.076 | 3.25 ± 0.087 | 3.22 ± 0.068 | 3.34 ± 0.036 |
| DDPTQLVSRGGCGNTQP [RPO21] | 3.18 ± 0.12 | 2.55 ± 0.19 | 2.97 ± 0.11 | 3.04 ± 0.088 |
| EEAKEEVTEEQAEATEW [RPS0A] | 3.48 ± 0.12 | 3.49 ± 0.1 | 3.02 ± 0.13 | 3.64 ± 0.091 |
| PSMMAPLRDNGLLDESP [YML031W/NDC1] |  | 2.79 ± 0.29 |  | 3.35 ± 0.11 |
| PNNASSHISASASPHLA [SNF2] | 2.53 ± 0.046 | 2.66 ± 0.044 | 2.51 ± 0.069 | 2.88 ± 0.039 |
| IGISIVGRFSTISSADF [ECM29] | 2.81 ± 0.24 | 2.54 ± 0.092 | 3.12 ± 0.3 | 2.26 ± 0.19 |
| GSEEKAFVPKKRKTNII [SRP54] | 3.12 ± 0.069 | 3.2 ± 0.077 | 2.88 ± 0.067 | 3.02 ± 0.06 |
| SILRKSSPEEPFMSYSP [SNF12] | 2.64 ± 0.074 | 2.74 ± 0.075 | 2.55 ± 0.088 | 2.79 ± 0.059 |
| RAPELLLGARHYTPAVD [SSN3] | 1.67 ± 0.12 | 1.08 ± 0.13 | 1.9 ± 0.3 | 1.56 ± 0.11 |
| GSNQQSSTGGGLFGNKP [YGR119C/NUP57] | 3.36 ± 0.093 | 3.28 ± 0.084 | 3.23 ± 0.058 | 3.28 ± 0.042 |
| QLLNGQKIVVVRAEELN [RPL16A] | 1.28 ± 0.049 | 1.31 ± 0.051 | 1.24 ± 0.13 | 1.21 ± 0.056 |
| PEIPLVVSTDLESIQKT [RPL4A] | 2.96 ± 0.071 | 3.05 ± 0.086 | 3.16 ± 0.052 | 2.81 ± 0.062 |
| QHQEEPLLSLDVTPISM [RPN4] | 2.77 ± 0.2 | 2.97 ± 0.16 | 3.07 ± 0.086 | 2.65 ± 0.23 |
| RDKAGRLAEVNLKDLNN [RPO21] | 3.15 ± 0.11 | 2.75 ± 0.083 | 2.55 ± 0.086 | 2.79 ± 0.11 |
| APGASVPATAAPGTEAG [SWI1] | 2.99 ± 0.094 | 3.05 ± 0.075 | 2.92 ± 0.079 | 3.18 ± 0.07 |
| TRPISSQVLDLAKKIAP [SMC2] | 2.72 ± 0.15 | 2.44 ± 0.097 | 2.59 ± 0.28 | 1.95 ± 0.14 |
| TQAIADIVQYHLELYTS [PRE3] | 2.07 ± 0.064 | 1.72 ± 0.057 | 1.77 ± 0.069 | 2.01 ± 0.042 |
| PINLKFLQGESPFSITF [YMR129W/POM152] | 2.53 ± 0.079 | 2.1 ± 0.063 | 2.63 ± 0.063 | 2.32 ± 0.071 |
| LLGPTLEDHTPPEDKPN [QCR10] | 2.5 ± 0.057 | 2.81 ± 0.064 | 2.94 ± 0.082 | 2.94 ± 0.033 |
| ERAARVAAKIAALAGQQ [RPL5] | 2.71 ± 0.13 | 3.03 ± 0.17 | 2.57 ± 0.15 | 3.11 ± 0.079 |
| QAVETVGQAGRPKKITG [RPN1] | 1.99 ± 0.06 | 2.74 ± 0.095 | 2.31 ± 0.12 | 2.45 ± 0.056 |
| FVKVTKATLELLKLIEP [RPL7A] | 3.06 ± 0.11 | 2.87 ± 0.096 | 2.62 ± 0.15 | 2.91 ± 0.13 |
| PSIIFIDEVDSIATKRF [RPT3] | 3.05 ± 0.096 | 3.1 ± 0.067 | 2.96 ± 0.046 | 3.19 ± 0.068 |
| KAAAGAGSAALKIIHDT [RPO31] | 3.45 ± 0.13 | 1.8 ± 0.17 | 1.72 ± 0.13 | 1.77 ± 0.18 |
| DYRPAEETEAQAEPVEA [RPS3] | 2.93 ± 0.075 | 3.26 ± 0.065 | 3.14 ± 0.038 | 3.17 ± 0.052 |
| HPAYLFKGLETPLKARQ [YLR018C/POM34] | 2.16 ± 0.073 | 2.26 ± 0.057 | 1.36 ± 0.077 | 2.08 ± 0.043 |
